By Kd is commonly meant the constant that tells how readily two partners part at equilibrium. High values mean a looser complex, low ones a tighter complex.

We go through eight molecules from article PMC314469 (2004).

No end group written: not given here. Bounds are passed on as bounds.

The chains are these.
T1: GST-Abp1 SH3 domain (S. cerevisiae, UniProt P15891 532-592)
T1 chain: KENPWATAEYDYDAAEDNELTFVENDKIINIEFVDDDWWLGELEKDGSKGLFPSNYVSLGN

B1: BOI2 SH3 domain (protein)
chain: GNFPMYIAINEYFKRMEDELDMKPGDKIKVITDDEEYKDGWYFGRNLRTNEEGLYPVVFTQKITV
B2: YFR024C SH3 domain (protein)
chain: TSSPKAVALYSFAGEESGDLPFRKGDVITILKKSDSQNDWWTGRVNGREGIFPANYVELV
B3: RVS167 SH3 domain (protein)
chain: PGVETVTALYDYQAQAAGDLSFPAGAVIEIVQRTPDVNEWWTGRYNGQQGVFPGNYVQLNKN

The target in one assay is T1, GST-Abp1 SH3 domain. The experiment in a line: SPR. A general note: In SPR one partner is held on a chip, and binding of the other changes the refractive index at the surface.
LSTKKPRPPVKSKP (also: bound to cellulose membrane) [Scp1 peptide(s) on the Abp1 SPOT membrane] gave a Kd of 14 µM.

Molecule SKDKKTKPTPPPKP (also: bound to cellulose membrane (SPOT)) [Ark1 peptide(s) on the Abp1 SPOT membrane] showed a Kd of 24 µM.

PPPRPKKP (also: bound to cellulose membrane) [Srv2 peptide(s) on the Abp1 SPOT membrane] registered a Kd of 75 µM.

Take GKDKSRPPRPPPKP (also: bound to cellulose membrane (SPOT)) [Prk1 peptide(s) on the Abp1 SPOT membrane]: binding was characterised by a dissociation constant (Kd) of 22 µM.

RPKRRAPPPVPKKP (also: bound to cellulose SPOT membrane) [Yir003w peptide(s) on the Abp1 SPOT membrane] came in with a Kd of 0.92 µM.

A further assay addresses B3. The experiment in a line: SPR.
As for SKDKKTKPTPPPKP (also: bound to cellulose membrane (SPOT)) [Ark1 peptide(s) on the Abp1 SPOT membrane], the Kd was over 100 µM.

For the molecule GKDKSRPPRPPPKP (also: bound to cellulose membrane (SPOT)) [Prk1 peptide(s) on the Abp1 SPOT membrane], the Kd is over 100 µM.

RPKRRAPPPVPKKP (also: bound to cellulose SPOT membrane) [Yir003w peptide(s) on the Abp1 SPOT membrane] came in with a Kd of 13 µM.

A further assay deals with T1, GST-Abp1 SH3 domain. Put plainly: SPR. This is another data set of the same source.
Molecule LSTKKPRPPVKSKP (also: bound to cellulose membrane) [Scp1 peptide(s) on the Abp1 SPOT membrane] returned an equilibrium dissociation constant (Kd) of 14 µM.

In the case of SKDKKTKPTPPPKP (also: bound to cellulose membrane (SPOT)) [Ark1 peptide(s) on the Abp1 SPOT membrane], the equilibrium dissociation constant (Kd) was found to be 24 µM.

Regarding PPPRPKKP (also: bound to cellulose membrane) [Srv2 peptide(s) on the Abp1 SPOT membrane], the Kd was found to be 75 µM.

The molecule GKDKSRPPRPPPKP (also: bound to cellulose membrane (SPOT)) [Prk1 peptide(s) on the Abp1 SPOT membrane] showed an equilibrium dissociation constant (Kd) of 22 µM.

Regarding RPKRRAPPPVPKKP (also: bound to cellulose SPOT membrane) [Yir003w peptide(s) on the Abp1 SPOT membrane], the Kd is 0.9 µM.

In a further assay the target is YJR083C peptide. The experiment in a line: SPR.
With B1, the Kd is over 100 µM.

The target in a further assay is YPR171 peptide. Put plainly: SPR.
The molecule B1 showed a Kd of over 100 µM.

In the case of B2, the Kd was 4.8 µM.

B3 came in with a Kd of 16 µM.

A further assay deals with YMR192 peptide. Put plainly: SPR.
On to B1, for which the Kd was over 100 µM.
